Experimental data from US20220298218A1 (ANTAG THERAPEUTICS, published 2022).
*1 amine or outer side, *2 acyl side, *3 side chain or, on linkers, in order; H or OH if unused. Where no end group is shown, it is not given here. Side-chain parts run from the residue outwards. [ ]: non-standard residue; d: D form. The star is where a group is joined. C18 diacid = O=C(O)CCCCCCCCCCCCCCCCC(=O)*; C16 diacid = O=C(O)CCCCCCCCCCCCCCC(=O)*; γGlu = O=C(O)[C@H](CCC(=O)[*:2])N[*:1]; Glutaryl = O=C(CCCC(=O)[*:2])[*:1]; Nle = CCCC[C@H](N)C(=O)O; AEEA = NCCOCCOCC(=O)O

T1: human GIP receptor (human, UniProt P48546 22-466)
T1 sequence (looked up): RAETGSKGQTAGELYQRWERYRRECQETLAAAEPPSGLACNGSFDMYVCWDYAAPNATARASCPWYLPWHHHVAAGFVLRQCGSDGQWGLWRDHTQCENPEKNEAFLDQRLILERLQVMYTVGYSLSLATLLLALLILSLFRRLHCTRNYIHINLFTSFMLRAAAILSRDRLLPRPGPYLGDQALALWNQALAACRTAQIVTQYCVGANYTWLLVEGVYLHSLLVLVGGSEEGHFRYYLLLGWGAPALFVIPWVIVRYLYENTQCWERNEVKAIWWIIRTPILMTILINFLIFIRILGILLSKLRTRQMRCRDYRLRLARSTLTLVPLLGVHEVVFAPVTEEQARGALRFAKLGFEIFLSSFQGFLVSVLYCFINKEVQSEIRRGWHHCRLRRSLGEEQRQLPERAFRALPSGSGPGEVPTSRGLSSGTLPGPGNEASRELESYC

B1: AT677 (peptide)
peptide: Glutaryl-GTFISDYSIAMDKIK(C16 diacid)QQDFVNWLLAQKPSSGAPPPS-OH
SMILES: CC[C@H](C)[C@H](NC(=O)[C@H](CO)NC(=O)[C@H](Cc1ccc(O)cc1)NC(=O)[C@H](CC(=O)O)NC(=O)[C@H](CO)NC(=O)[C@@H](NC(=O)[C@H](Cc1ccccc1)NC(=O)[C@@H](NC(=O)CNC(=O)CCCC(=O)O)[C@@H](C)O)[C@@H](C)CC)C(=O)N[C@@H](C)C(=O)N[C@@H](CCSC)C(=O)N[C@@H](CC(=O)O)C(=O)N[C@@H](CCCCN)C(=O)N[C@H](C(=O)N[C@@H](CCCCNC(=O)CCCCCCCCCCCCCCC(=O)O)C(=O)N[C@@H](CCC(N)=O)C(=O)N[C@@H](CCC(N)=O)C(=O)N[C@@H](CC(=O)O)C(=O)N[C@@H](Cc1ccccc1)C(=O)N[C@H](C(=O)N[C@@H](CC(N)=O)C(=O)N[C@@H](Cc1c[nH]c2ccccc12)C(=O)N[C@@H](CC(C)C)C(=O)N[C@@H](CC(C)C)C(=O)N[C@@H](C)C(=O)N[C@@H](CCC(N)=O)C(=O)N[C@@H](CCCCN)C(=O)N1CCC[C@H]1C(=O)N[C@@H](CO)C(=O)N[C@@H](CO)C(=O)NCC(=O)N[C@@H](C)C(=O)N1CCC[C@H]1C(=O)N1CCC[C@H]1C(=O)N1CCC[C@H]1C(=O)N[C@@H](CO)C(=O)O)C(C)C)[C@@H](C)CC
B2: AT680 (peptide)
peptide: EGTFISDYSIAMDKIK([AEEA-AEEA-γGlu-C18 diacid])QQDFVNWLLAQKPSSGAPPPS-OH
modifications: N-terminus assumed
SMILES: CC[C@H](C)[C@H](NC(=O)[C@H](CO)NC(=O)[C@H](Cc1ccc(O)cc1)NC(=O)[C@H](CC(=O)O)NC(=O)[C@H](CO)NC(=O)[C@@H](NC(=O)[C@H](Cc1ccccc1)NC(=O)[C@@H](NC(=O)CNC(=O)[C@@H](N)CCC(=O)O)[C@@H](C)O)[C@@H](C)CC)C(=O)N[C@@H](C)C(=O)N[C@@H](CCSC)C(=O)N[C@@H](CC(=O)O)C(=O)N[C@@H](CCCCN)C(=O)N[C@H](C(=O)N[C@@H](CCCCNC(=O)COCCOCCNC(=O)COCCOCCNC(=O)CC[C@H](NC(=O)CCCCCCCCCCCCCCCCC(=O)O)C(=O)O)C(=O)N[C@@H](CCC(N)=O)C(=O)N[C@@H](CCC(N)=O)C(=O)N[C@@H](CC(=O)O)C(=O)N[C@@H](Cc1ccccc1)C(=O)N[C@H](C(=O)N[C@@H](CC(N)=O)C(=O)N[C@@H](Cc1c[nH]c2ccccc12)C(=O)N[C@@H](CC(C)C)C(=O)N[C@@H](CC(C)C)C(=O)N[C@@H](C)C(=O)N[C@@H](CCC(N)=O)C(=O)N[C@@H](CCCCN)C(=O)N1CCC[C@H]1C(=O)N[C@@H](CO)C(=O)N[C@@H](CO)C(=O)NCC(=O)N[C@@H](C)C(=O)N1CCC[C@H]1C(=O)N1CCC[C@H]1C(=O)N1CCC[C@H]1C(=O)N[C@@H](CO)C(=O)O)C(C)C)[C@@H](C)CC
B3: AT682 (peptide)
peptide: EGTFISDYSIALDKIK([AEEA-AEEA-γGlu-C18 diacid])QQDFVEWLLAQKPSSGAPPPS-OH
modifications: N-terminus assumed
SMILES: CC[C@H](C)[C@H](NC(=O)[C@H](CO)NC(=O)[C@H](Cc1ccc(O)cc1)NC(=O)[C@H](CC(=O)O)NC(=O)[C@H](CO)NC(=O)[C@@H](NC(=O)[C@H](Cc1ccccc1)NC(=O)[C@@H](NC(=O)CNC(=O)[C@@H](N)CCC(=O)O)[C@@H](C)O)[C@@H](C)CC)C(=O)N[C@@H](C)C(=O)N[C@@H](CC(C)C)C(=O)N[C@@H](CC(=O)O)C(=O)N[C@@H](CCCCN)C(=O)N[C@H](C(=O)N[C@@H](CCCCNC(=O)COCCOCCNC(=O)COCCOCCNC(=O)CC[C@H](NC(=O)CCCCCCCCCCCCCCCCC(=O)O)C(=O)O)C(=O)N[C@@H](CCC(N)=O)C(=O)N[C@@H](CCC(N)=O)C(=O)N[C@@H](CC(=O)O)C(=O)N[C@@H](Cc1ccccc1)C(=O)N[C@H](C(=O)N[C@@H](CCC(=O)O)C(=O)N[C@@H](Cc1c[nH]c2ccccc12)C(=O)N[C@@H](CC(C)C)C(=O)N[C@@H](CC(C)C)C(=O)N[C@@H](C)C(=O)N[C@@H](CCC(N)=O)C(=O)N[C@@H](CCCCN)C(=O)N1CCC[C@H]1C(=O)N[C@@H](CO)C(=O)N[C@@H](CO)C(=O)NCC(=O)N[C@@H](C)C(=O)N1CCC[C@H]1C(=O)N1CCC[C@H]1C(=O)N1CCC[C@H]1C(=O)N[C@@H](CO)C(=O)O)C(C)C)[C@@H](C)CC
B4: AT689 (peptide)
peptide: EGTFISDYSIALDKIK([AEEA-AEEA-γGlu-C18 diacid])QQDFVNWLLEQKPSSGAPPPS-OH
modifications: N-terminus assumed
SMILES: CC[C@H](C)[C@H](NC(=O)[C@H](CO)NC(=O)[C@H](Cc1ccc(O)cc1)NC(=O)[C@H](CC(=O)O)NC(=O)[C@H](CO)NC(=O)[C@@H](NC(=O)[C@H](Cc1ccccc1)NC(=O)[C@@H](NC(=O)CNC(=O)[C@@H](N)CCC(=O)O)[C@@H](C)O)[C@@H](C)CC)C(=O)N[C@@H](C)C(=O)N[C@@H](CC(C)C)C(=O)N[C@@H](CC(=O)O)C(=O)N[C@@H](CCCCN)C(=O)N[C@H](C(=O)N[C@@H](CCCCNC(=O)COCCOCCNC(=O)COCCOCCNC(=O)CC[C@H](NC(=O)CCCCCCCCCCCCCCCCC(=O)O)C(=O)O)C(=O)N[C@@H](CCC(N)=O)C(=O)N[C@@H](CCC(N)=O)C(=O)N[C@@H](CC(=O)O)C(=O)N[C@@H](Cc1ccccc1)C(=O)N[C@H](C(=O)N[C@@H](CC(N)=O)C(=O)N[C@@H](Cc1c[nH]c2ccccc12)C(=O)N[C@@H](CC(C)C)C(=O)N[C@@H](CC(C)C)C(=O)N[C@@H](CCC(=O)O)C(=O)N[C@@H](CCC(N)=O)C(=O)N[C@@H](CCCCN)C(=O)N1CCC[C@H]1C(=O)N[C@@H](CO)C(=O)N[C@@H](CO)C(=O)NCC(=O)N[C@@H](C)C(=O)N1CCC[C@H]1C(=O)N1CCC[C@H]1C(=O)N1CCC[C@H]1C(=O)N[C@@H](CO)C(=O)O)C(C)C)[C@@H](C)CC
B5: AT690 (peptide)
peptide: EGTFISDYSIA[Nle]DKIK([AEEA-AEEA-γGlu-C18 diacid])QQDFVNWLLEQKPSSGAPPPS-OH
modifications: N-terminus assumed
SMILES: CCCC[C@H](NC(=O)[C@H](C)NC(=O)[C@@H](NC(=O)[C@H](CO)NC(=O)[C@H](Cc1ccc(O)cc1)NC(=O)[C@H](CC(=O)O)NC(=O)[C@H](CO)NC(=O)[C@@H](NC(=O)[C@H](Cc1ccccc1)NC(=O)[C@@H](NC(=O)CNC(=O)[C@@H](N)CCC(=O)O)[C@@H](C)O)[C@@H](C)CC)[C@@H](C)CC)C(=O)N[C@@H](CC(=O)O)C(=O)N[C@@H](CCCCN)C(=O)N[C@H](C(=O)N[C@@H](CCCCNC(=O)COCCOCCNC(=O)COCCOCCNC(=O)CC[C@H](NC(=O)CCCCCCCCCCCCCCCCC(=O)O)C(=O)O)C(=O)N[C@@H](CCC(N)=O)C(=O)N[C@@H](CCC(N)=O)C(=O)N[C@@H](CC(=O)O)C(=O)N[C@@H](Cc1ccccc1)C(=O)N[C@H](C(=O)N[C@@H](CC(N)=O)C(=O)N[C@@H](Cc1c[nH]c2ccccc12)C(=O)N[C@@H](CC(C)C)C(=O)N[C@@H](CC(C)C)C(=O)N[C@@H](CCC(=O)O)C(=O)N[C@@H](CCC(N)=O)C(=O)N[C@@H](CCCCN)C(=O)N1CCC[C@H]1C(=O)N[C@@H](CO)C(=O)N[C@@H](CO)C(=O)NCC(=O)N[C@@H](C)C(=O)N1CCC[C@H]1C(=O)N1CCC[C@H]1C(=O)N1CCC[C@H]1C(=O)N[C@@H](CO)C(=O)O)C(C)C)[C@@H](C)CC
B6: AT691 (peptide)
peptide: EGTFISDYSIALDKIK([AEEA-AEEA-γGlu-C18 diacid])QQDFVNWLLEGGPSSGAPPPS-OH
modifications: N-terminus assumed
SMILES: CC[C@H](C)[C@H](NC(=O)[C@H](CO)NC(=O)[C@H](Cc1ccc(O)cc1)NC(=O)[C@H](CC(=O)O)NC(=O)[C@H](CO)NC(=O)[C@@H](NC(=O)[C@H](Cc1ccccc1)NC(=O)[C@@H](NC(=O)CNC(=O)[C@@H](N)CCC(=O)O)[C@@H](C)O)[C@@H](C)CC)C(=O)N[C@@H](C)C(=O)N[C@@H](CC(C)C)C(=O)N[C@@H](CC(=O)O)C(=O)N[C@@H](CCCCN)C(=O)N[C@H](C(=O)N[C@@H](CCCCNC(=O)COCCOCCNC(=O)COCCOCCNC(=O)CC[C@H](NC(=O)CCCCCCCCCCCCCCCCC(=O)O)C(=O)O)C(=O)N[C@@H](CCC(N)=O)C(=O)N[C@@H](CCC(N)=O)C(=O)N[C@@H](CC(=O)O)C(=O)N[C@@H](Cc1ccccc1)C(=O)N[C@H](C(=O)N[C@@H](CC(N)=O)C(=O)N[C@@H](Cc1c[nH]c2ccccc12)C(=O)N[C@@H](CC(C)C)C(=O)N[C@@H](CC(C)C)C(=O)N[C@@H](CCC(=O)O)C(=O)NCC(=O)NCC(=O)N1CCC[C@H]1C(=O)N[C@@H](CO)C(=O)N[C@@H](CO)C(=O)NCC(=O)N[C@@H](C)C(=O)N1CCC[C@H]1C(=O)N1CCC[C@H]1C(=O)N1CCC[C@H]1C(=O)N[C@@H](CO)C(=O)O)C(C)C)[C@@H](C)CC

These binders were tested against T1, human GIP receptor (assay: cell-based or functional assay).

B1 and B2 are the same in “cAMP agonism % Emax” value: 0% for the first, 0% for the second.

B3 and EGTFISDYSIA[Nle]DKIK([AEEA-AEEA-γGlu-C18 diacid])QQDFVEWLLAQKPSSGAPPPS-OH [AT683] are the same in “cAMP agonism % Emax” value: 0% for the first, 0% for the second.

First: B4
Second: B5
The “cAMP agonism % Emax” value of the first is lower: 3% for the first, 6% for the second.

For B6, the “cAMP agonism % Emax” value was 7%.

First: B1
Second: B2
The “cAMP antagonism” value of the first is 9.6-fold lower: 0.447 nM for the first, 4.3 nM for the second.

B3 and EGTFISDYSIA[Nle]DKIK([AEEA-AEEA-γGlu-C18 diacid])QQDFVEWLLAQKPSSGAPPPS-OH [AT683] are within 1.5-fold of each other in “cAMP antagonism” value: 13.6 nM for the first, 15.9 nM for the second.

Going from B4 to B5, the “cAMP antagonism” value rises from 10 nM to 15.9 nM (1.6-fold).

In the case of B6, the “cAMP antagonism” value is reported as 20 nM.

B1 and B2 are the same in “cAMP antagonism % inhib” value: 93% for the first, 93% for the second.

Going from B3 to EGTFISDYSIA[Nle]DKIK([AEEA-AEEA-γGlu-C18 diacid])QQDFVEWLLAQKPSSGAPPPS-OH [AT683], the “cAMP antagonism % inhib” value rises from 89% to 93%.

Compared with B4, B5 is lower in “cAMP antagonism % inhib” value: 82% for the first, 76% for the second.

In the case of B6, the “cAMP antagonism % inhib” value is reported as 75%.

Compared with B1, B2 is lower in “cAMP antagonism pIC50” value: 9.4 for the first, 8.4 for the second.

B3 and EGTFISDYSIA[Nle]DKIK([AEEA-AEEA-γGlu-C18 diacid])QQDFVEWLLAQKPSSGAPPPS-OH [AT683] are within 0.2 log units of each other in “cAMP antagonism pIC50” value: 7.9 for the first, 7.8 for the second.

Going from B4 to B5, the “cAMP antagonism pIC50” value falls from 8 to 7.8.

For B6, the “cAMP antagonism pIC50” value was 7.8.
